To fix the notation:
B1: HDV Ribozyme (parent)
chain: GGCCGGCAUGGUCCCAGCCUCCUCGCUGGCGCCGGCUGGGCAACAUUCCGAGGGGACCGUCCCCUCGGUAAUGGCGAAUGGGACCCA

The variants in the data set derive from B1. The data set is described as follows: self-cleavage, relative activity (ratio to wild type); higher = more cleavage; co-transcriptional.
With GGCCGGCAUGGUCCCAGCCUCCUCGCUGGCGCCGGCUGGGCGACAAUCCGAGGGGACCGUCCCCUCGGUAAUGGCGAAUGGGACCCA, the self-cleavage amounted to 0.554.

Take GGCCGGCAUGGUCCCAGCCUCCUCGCUGGCGCCGGCUGGGCGACAUUCCGAGGUGACCGUCCCCUCGGUAAUGGCGAAUGGGACCCA: the self-cleavage was found to be 0.502.

Take GGCCGGCAUGGUCCCAGCCUCCUCGCUGGCGCCGGCUGGGCUACAUUCCGAGGGGACCGUCCCCUCGGUAAUGGCGACUGGGACCCA: the self-cleavage came to 0.169.

In the case of GGCCGGCAUGGUCCCAGCCUCCUCGCUGGCGCCGGCUGGGCUACAUUCCGAGGGGACCGUCCCCUCGGUAAUGGCGAUUGGGACCCA, the self-cleavage turned out to be 0.284.

Regarding GGCCGGCAUGGUCCCAGCCUCCUCGCUGGCGCCGGCUGGGCUACAAUCCGAGGGGACCGUCCCCUCGGUAAUGGCGAAUGGGACCCA, the self-cleavage came out at 0.443.

On to GGCCGGCAUGGUCCCAGCCUCCUCGCUGGCGCCGGCUGGGCACCAUUCCGAGGGGACCGUCCCGUCGGUAAUGGCGAAUGGGACCCA, for which the self-cleavage was 0.415.

With GGCCGGCAUGGUCCCAGCCUCCUCGCUGGCGCCGGCUGGGCUACAUUCCGAGGGGACCGUCCCCUCGGUAAUGGCGAAUGUGACCCA, the self-cleavage amounted to 0.145.

Consider GGCCGGCAUGGUCCCAGCCUCCUCGCUGGCGCCGGCUGGGCGACAUUCCGAGGGGACCGUCCCCUCGGUAAUGGCGAAUCGGACCCA, for which the self-cleavage was 0.364.

As for GGCCGGCAUGGUCCCAGCCUCCUCGCUGGCGCCGGCUGGGCUACAUUCCGAGGGGACCGUCCCCUCGGUAAUGGCGAAUGGGACGCA, the self-cleavage came out at 0.332.

On to GGCCGGCAUGGUCCCAGCCUCCUCGCUGGCGCCGGCUGGGCUACAUUCCGAGGGGACCGUCCCCUCCGUAAUGGCGAAUGGGACCCA, for which the self-cleavage worked out at 0.415.

For GGCCGGCAUGGUCCCAGCCUCCUCGCUGGCGCCGGCUGGGCUACAUUCCGAGGGGACCGUCCCCUCAGUAAUGGCGAAUGGGACCCA, the self-cleavage worked out at 0.47.

With GGCCGGCAUGGUCCCAGCCUCCUCGCUGGCGCCGGCUGGGCUACAUUCCGAGGGGACCGUCCCCUCUGUAAUGGCGAAUGGGACCCA, the self-cleavage came out at 0.346.

For GGCCGGCAUGGUCCCAGCCUCCUCGCUGGCGCCGGCUGGGCACCAUUCCGAGGUGACCGUCCCCUCGGUAAUGGCGAAUGGGACCCA, the self-cleavage stood at 0.374.

Turning to GGCCGGCAUGGUCCCAGCCUCCUCGCUGGCGCCGGCUGGGCUACAUUCCGAGGGGACCGUCCCCUCGGUAAUGGCGAAUGGGACCCC, the self-cleavage is 0.533.

Regarding GGCCGGCAUGGUCCCAGCCUCCUCGCUGGCGCCGGCUGGGCACCAUUCCCAGGGGACCGUCCCCUCGGUAAUGGCGAAUGGGACCCA, the self-cleavage came to 0.284.

Take GGCCGGCAUGGUCCCAGCCUCCUCGCUGGCGCCGGCUGGGCUACAUUCCGAGGGGACCGUCCCCUCGGUAAUGGCGAAUGGGAUCCA: the self-cleavage amounted to 0.181.

With GGCCGGCAUGGUCCCAGCCUCCUCGCUGGCGCCGGCUGGGCUACAUUCCGAGGGGACCGUCCCCUCGGUAAUGGCGAAUGGGAACCA, the self-cleavage came to 0.655.

GGCCGGCAUGGUCCCAGCCUCCUCGCUGGCGCCGGCUGGGCUACAUUCCGAGGGGACCGUCCCCUCGGUAAGGGCGAAUGGGACCCA: the self-cleavage stood at 0.322.

In the case of GGCCGGCAUGGUCCCAGCCUCCUCGCUGGCGCCGGCUGGGCUACAUUCCGAGGGGAACGUCCCCUCGGUAAUGGCGAAUGGGACCCA, the self-cleavage was found to be 0.575.

GGCCGGCAUGGUCCCAGCCUCCUCGCUGGCGCCGGCUGGGCGACAUUCCGAGGGGACCGUCCCCUCGGUAAUGGCGAAUGGAACCCA: the self-cleavage turned out to be 0.158.

On to GGCCGGCAUGGUCCCAGCCUCCUCGCUGGCGCCGGCUGGGCGACAUCCCGAGGGGACCGUCCCCUCGGUAAUGGCGAAUGGGACCCA, for which the self-cleavage came to 0.532.

With GGCCGGCAUGGUCCCAGCCUCCUCGCUGGCGCCGGCUGGGCACCAUUCCGAGGGGACCGUCCCCUCGGUUAUGGCGAAUGGGACCCA, the self-cleavage turned out to be 0.322.

Turning to GGCCGGCAUGGUCCCAGCCUCCUCGCUGGCGCCGGCUGGGCACCAUUACGAGGGGACCGUCCCCUCGGUAAUGGCGAAUGGGACCCA, the self-cleavage is 0.386.

With GGCCGGCAUGGUCCCAGCCUCCUCGCUGGCGCCGGCUGGGCACCAUUCCGAGGGGACCGUCCCCUCGGUAAUGGCGGAUGGGACCCA, the self-cleavage turned out to be 0.317.

Consider GGCCGGCAUGGUCCCAGCCUCCUCGCUGGCGCCGGCUGGGCUACAUUCCGAGGGGACCGUCCCCACGGUAAUGGCGAAUGGGACCCA, for which the self-cleavage came out at 0.434.

For GGCCGGCAUGGUCCCAGCCUCCUCGCUGGCGCCGGCUGGGCUACAUUCCGAGGGGACCGUCCCCUCGGUAUUGGCGAAUGGGACCCA, the self-cleavage is 0.369.

GGCCGGCAUGGUCCCAGCCUCCUCGCUGGCGCCGGCUGGGCUACAUUCCGAGGUGACCGUCCCCUCGGUAAUGGCGAAUGGGACCCA: the self-cleavage worked out at 0.465.

As to GGCCGGCAUGGUCCCAGCCUCCUCGCUGGCGCCGGCUGGGCGACAUUCCGAGGGGACCGUCCCCUCAGUAAUGGCGAAUGGGACCCA, the self-cleavage was determined as 0.435.

In the case of GGCCGGCAUGGUCCCAGCCUCCUCGCUGGCGCCGGCUGGGCUACAUUCCGCGGGGACCGUCCCCUCGGUAAUGGCGAAUGGGACCCA, the self-cleavage stood at 0.665.

For GGCCGGCAUGGUCCCAGCCUCCUCGCUGGCGCCGGCUGGGCUACAUUCCGAGGGGCCCGUCCCCUCGGUAAUGGCGAAUGGGACCCA, the self-cleavage stood at 0.629.

Consider GGCCGGCAUGGUCCCAGCCUCCUCGCUGGCGCCGGCUGGGCUACAUUCCGAGGGGUCCGUCCCCUCGGUAAUGGCGAAUGGGACCCA, for which the self-cleavage came to 0.577.

With GGCCGGCAUGGUCCCAGCCUCCUCGCUGGCGCCGGCUGGGCUACAUUCCGAGGGGACCGUCUCCUCGGUAAUGGCGAAUGGGACCCA, the self-cleavage worked out at 0.742.

In the case of GGCCGGCAUGGUCCCAGCCUCCUCGCUGGCGCCGGCUGGGCACCAUUCCGAGGGGACCGUCCCCUCGGUAAUAGCGAAUGGGACCCA, the self-cleavage was found to be 0.407.

GGCCGGCAUGGUCCCAGCCUCCUCGCUGGCGCCGGCUGGGCACCAUUCCGAGGGGACCGUCCCCUCGAUAAUGGCGAAUGGGACCCA: the self-cleavage was found to be 0.268.

Consider GGCCGGCAUGGUCCCAGCCUCCUCGCUGGCGCCGGCUGGGCGACAUUCCGAGGGGACCGUCCCCUCGGUAAAGGCGAAUGGGACCCA, for which the self-cleavage was 0.369.

On to GGCCGGCAUGGUCCCAGCCUCCUCGCUGGCGCCGGCUGGGCACCAUUCCGAGGGGACCGUCCCCUCUGUAAUGGCGAAUGGGACCCA, for which the self-cleavage came to 0.299.

As for GGCCGGCAUGGUCCCAGCCUCCUCGCUGGCGCCGGCUGGGCUACAUUCCAAGGGGACCGUCCCCUCGGUAAUGGCGAAUGGGACCCA, the self-cleavage was 0.383.

GGCCGGCAUGGUCCCAGCCUCCUCGCUGGCGCCGGCUGGGCUACAUUCCGAGAGGACCGUCCCCUCGGUAAUGGCGAAUGGGACCCA: the self-cleavage stood at 0.875.

Consider GGCCGGCAUGGUCCCAGCCUCCUCGCUGGCGCCGGCUGGGCGACAUUCCGAGCGGACCGUCCCCUCGGUAAUGGCGAAUGGGACCCA, for which the self-cleavage is 0.391.

Regarding GGCCGGCAUGGUCCCAGCCUCCUCGCUGGCGCCGGCUGGGCACCAUUCCGAGGGCACCGUCCCCUCGGUAAUGGCGAAUGGGACCCA, the self-cleavage was 0.312.

For the variant GGCCGGCAUGGUCCCAGCCUCCUCGCUGGCGCCGGCUGGGCUACAUUCCGAGGGGACCGUCCCGUCGGUAAUGGCGAAUGGGACCCA, the self-cleavage worked out at 0.574.

As to GGCCGGCAUGGUCCCAGCCUCCUCGCUGGCGCCGGCUGGGCUACAUUCCGAGGGGACCGUCCCCUCGGUUAUGGCGAAUGGGACCCA, the self-cleavage amounted to 0.312.

For GGCCGGCAUGGUCCCAGCCUCCUCGCUGGCGCCGGCUGGGCUACAUUCCGAGGGGACCGUCCCCUCGGUAAUGGCGAAUGGAACCCA, the self-cleavage was 0.157.

Regarding GGCCGGCAUGGUCCCAGCCUCCUCGCUGGCGCCGGCUGGGCACAAUUCCGAGGGGACCGUCCCCUCGGUAAUGGCGAAUGGGACCCA, the self-cleavage is 0.665.

As for GGCCGGCAUGGUCCCAGCCUCCUCGCUGGCGCCGGCUGGGCACCAUUCCGAGGGGACCAUCCCCUCGGUAAUGGCGAAUGGGACCCA, the self-cleavage was found to be 0.441.

For GGCCGGCAUGGUCCCAGCCUCCUCGCUGGCGCCGGCUGGGCACCUUUCCGAGGGGACCGUCCCCUCGGUAAUGGCGAAUGGGACCCA, the self-cleavage turned out to be 0.554.

Consider GGCCGGCAUGGUCCCAGCCUCCUCGCUGGCGCCGGCUGGGCUAUAUUCCGAGGGGACCGUCCCCUCGGUAAUGGCGAAUGGGACCCA, for which the self-cleavage was 0.674.

As for GGCCGGCAUGGUCCCAGCCUCCUCGCUGGCGCCGGCUGGGCACCAUUCCGAGGGGACCGUCCACUCGGUAAUGGCGAAUGGGACCCA, the self-cleavage came out at 0.26.

Consider GGCCGGCAUGGUCCCAGCCUCCUCGCUGGCGCCGGCUGGGCACCAUUCCGAGGGGACCGUCCUCUCGGUAAUGGCGAAUGGGACCCA, for which the self-cleavage was found to be 0.529.

On to GGCCGGCAUGGUCCCAGCCUCCUCGCUGGCGCCGGCUGGGCGACAUUCCGAGGGGACCAUCCCCUCGGUAAUGGCGAAUGGGACCCA, for which the self-cleavage came to 0.831.

For the variant GGCCGGCAUGGUCCCAGCCUCCUCGCUGGCGCCGGCUGGGCUACAUUCCGAGGGGACCGUCCCCUCGGCAAUGGCGAAUGGGACCCA, the self-cleavage came to 0.437.

In the case of GGCCGGCAUGGUCCCAGCCUCCUCGCUGGCGCCGGCUGGGCUACAUUCCGAGGGGACCGUCCCCUCGGGAAUGGCGAAUGGGACCCA, the self-cleavage was found to be 0.519.

As to GGCCGGCAUGGUCCCAGCCUCCUCGCUGGCGCCGGCUGGGCUACAUUCCGAGGGGACCGUCCCCUCGGAAAUGGCGAAUGGGACCCA, the self-cleavage came to 0.364.

Take GGCCGGCAUGGUCCCAGCCUCCUCGCUGGCGCCGGCUGGGCACCAUUCCGAGGGGACCGUCCCCUCGGUAUUGGCGAAUGGGACCCA: the self-cleavage was 0.322.

As to GGCCGGCAUGGUCCCAGCCUCCUCGCUGGCGCCGGCUGGGCACCAUUCCGAGGGGACCGUCCCCUCGGUACUGGCGAAUGGGACCCA, the self-cleavage was 0.534.

On to GGCCGGCAUGGUCCCAGCCUCCUCGCUGGCGCCGGCUGGGCUACAUUCCGAGGGGACCGGCCCCUCGGUAAUGGCGAAUGGGACCCA, for which the self-cleavage amounted to 0.615.

For the variant GGCCGGCAUGGUCCCAGCCUCCUCGCUGGCGCCGGCUGGGCUACAUACCGAGGGGACCGUCCCCUCGGUAAUGGCGAAUGGGACCCA, the self-cleavage stood at 0.302.

As for GGCCGGCAUGGUCCCAGCCUCCUCGCUGGCGCCGGCUGGGCUACAUCCCGAGGGGACCGUCCCCUCGGUAAUGGCGAAUGGGACCCA, the self-cleavage was 0.394.

For the variant GGCCGGCAUGGUCCCAGCCUCCUCGCUGGCGCCGGCUGGGCGACAUUCCGAGGGGACCGUCCCCUCGGUAAUGACGAAUGGGACCCA, the self-cleavage turned out to be 0.0396.

Consider GGCCGGCAUGGUCCCAGCCUCCUCGCUGGCGCCGGCUGGGCACCAUUCCGAGGGGCCCGUCCCCUCGGUAAUGGCGAAUGGGACCCA, for which the self-cleavage was 0.59.

GGCCGGCAUGGUCCCAGCCUCCUCGCUGGCGCCGGCUGGGCUACAUUCCGAGGGGACCGUCCCCUCGGUAAUUGCGAAUGGGACCCA: the self-cleavage came out at 0.378.

As for GGCCGGCAUGGUCCCAGCCUCCUCGCUGGCGCCGGCUGGGCUACAUUCCGAGGGGACCGUCCACUCGGUAAUGGCGAAUGGGACCCA, the self-cleavage was 0.325.

For the variant GGCCGGCAUGGUCCCAGCCUCCUCGCUGGCGCCGGCUGGGCACCAUUCCGAGGGGAGCGUCCCCUCGGUAAUGGCGAAUGGGACCCA, the self-cleavage amounted to 0.655.

On to GGCCGGCAUGGUCCCAGCCUCCUCGCUGGCGCCGGCUGGGCACCAUUCCGAGGGGAUCGUCCCCUCGGUAAUGGCGAAUGGGACCCA, for which the self-cleavage amounted to 0.491.

Values taken from the RNAGym collection of RNA variant scans (doi:10.7554/elife.80360).
